# According to the supplement of paper PMC10065799, “High-throughput profiling of sequence recognition by tyrosine kinases and SH2 domains using bacterial peptide display” (eLife, 2023):
# Experiments:
# [1] = target: c-Src SH2; experiment: SH2 binding enrichment of the phosphorylated peptide, bacterial display (enrichment ratio); higher = better substrate or ligand; peptides without Tyr show the background
# [2] = target: SHP2-C SH2; experiment: as above
# [3] = target: Grb2 SH2 (UniProt P62993); experiment: as above
# Sequence of Grb2 SH2 (P62993 whole entry, looked up): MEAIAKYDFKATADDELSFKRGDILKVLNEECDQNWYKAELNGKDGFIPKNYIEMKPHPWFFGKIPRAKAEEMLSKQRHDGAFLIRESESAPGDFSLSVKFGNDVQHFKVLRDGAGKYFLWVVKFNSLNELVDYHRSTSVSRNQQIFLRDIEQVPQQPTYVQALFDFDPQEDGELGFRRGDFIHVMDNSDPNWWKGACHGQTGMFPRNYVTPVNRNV
# [4] = target: EPHB1 (UniProt P54762); experiment: phosphorylation enrichment, bacterial display (enrichment ratio); higher = better substrate or ligand; peptides without Tyr show the background
# Sequence of EPHB1 (P54762 whole entry, looked up): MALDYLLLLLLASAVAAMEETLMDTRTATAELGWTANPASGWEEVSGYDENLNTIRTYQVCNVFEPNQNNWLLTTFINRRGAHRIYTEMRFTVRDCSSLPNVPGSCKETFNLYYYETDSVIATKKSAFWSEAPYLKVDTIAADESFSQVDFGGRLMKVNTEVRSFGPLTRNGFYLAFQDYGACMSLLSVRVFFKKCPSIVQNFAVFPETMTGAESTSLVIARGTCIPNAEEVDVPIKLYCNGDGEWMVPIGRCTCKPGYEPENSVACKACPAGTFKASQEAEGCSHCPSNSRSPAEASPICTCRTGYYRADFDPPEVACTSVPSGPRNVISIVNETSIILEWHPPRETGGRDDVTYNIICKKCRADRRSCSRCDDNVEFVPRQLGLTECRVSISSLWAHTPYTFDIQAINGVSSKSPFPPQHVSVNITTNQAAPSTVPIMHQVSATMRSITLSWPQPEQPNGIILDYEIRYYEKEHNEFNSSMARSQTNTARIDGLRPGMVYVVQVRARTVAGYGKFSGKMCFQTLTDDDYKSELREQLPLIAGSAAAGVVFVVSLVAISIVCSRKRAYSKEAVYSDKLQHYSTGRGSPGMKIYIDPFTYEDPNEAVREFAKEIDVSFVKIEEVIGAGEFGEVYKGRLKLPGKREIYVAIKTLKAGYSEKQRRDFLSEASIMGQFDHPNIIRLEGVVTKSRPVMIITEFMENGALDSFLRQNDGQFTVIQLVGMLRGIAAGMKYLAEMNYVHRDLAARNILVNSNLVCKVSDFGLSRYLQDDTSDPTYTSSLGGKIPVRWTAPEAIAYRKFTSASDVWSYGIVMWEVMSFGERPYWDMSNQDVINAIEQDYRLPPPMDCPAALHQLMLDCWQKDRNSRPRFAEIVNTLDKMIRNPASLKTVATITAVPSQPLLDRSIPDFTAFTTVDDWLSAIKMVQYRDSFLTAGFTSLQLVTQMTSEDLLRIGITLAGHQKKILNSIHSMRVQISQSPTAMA
# [5] = target: FGFR1 (UniProt P11362); experiment: as above
# Sequence of FGFR1 (P11362 whole entry, looked up): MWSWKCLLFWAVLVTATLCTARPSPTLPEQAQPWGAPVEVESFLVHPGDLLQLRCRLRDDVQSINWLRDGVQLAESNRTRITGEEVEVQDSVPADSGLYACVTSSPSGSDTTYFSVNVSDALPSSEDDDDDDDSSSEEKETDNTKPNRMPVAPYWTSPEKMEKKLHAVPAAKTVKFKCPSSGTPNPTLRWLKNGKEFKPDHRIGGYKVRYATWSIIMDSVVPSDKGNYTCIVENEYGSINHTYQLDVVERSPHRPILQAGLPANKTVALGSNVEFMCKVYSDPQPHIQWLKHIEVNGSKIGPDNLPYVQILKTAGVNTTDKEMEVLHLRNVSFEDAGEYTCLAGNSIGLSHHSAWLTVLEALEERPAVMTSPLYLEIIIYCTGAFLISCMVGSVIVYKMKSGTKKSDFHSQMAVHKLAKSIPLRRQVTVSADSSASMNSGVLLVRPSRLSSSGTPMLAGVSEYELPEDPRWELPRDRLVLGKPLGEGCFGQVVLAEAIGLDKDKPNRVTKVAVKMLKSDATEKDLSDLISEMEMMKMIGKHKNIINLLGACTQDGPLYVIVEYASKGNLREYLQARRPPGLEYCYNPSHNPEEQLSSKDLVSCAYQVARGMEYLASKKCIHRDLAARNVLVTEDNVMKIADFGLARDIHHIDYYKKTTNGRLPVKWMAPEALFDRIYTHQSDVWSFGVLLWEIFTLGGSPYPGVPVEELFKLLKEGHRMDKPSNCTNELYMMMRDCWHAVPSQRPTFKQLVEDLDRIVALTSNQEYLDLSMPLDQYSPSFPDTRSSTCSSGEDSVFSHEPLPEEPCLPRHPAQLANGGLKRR
# [6] = target: FGFR3 (UniProt P22607); experiment: as above
# [7] = tested on: c-Src; experiment: as above
# [8] = tested on: c-Abl (mouse); experiment: as above
# [9] = target: EPHB2 (UniProt P29323); experiment: as above
# [10] = target: Fyn (UniProt P06241); experiment: as above
# Sequence of Fyn (P06241 whole entry, looked up): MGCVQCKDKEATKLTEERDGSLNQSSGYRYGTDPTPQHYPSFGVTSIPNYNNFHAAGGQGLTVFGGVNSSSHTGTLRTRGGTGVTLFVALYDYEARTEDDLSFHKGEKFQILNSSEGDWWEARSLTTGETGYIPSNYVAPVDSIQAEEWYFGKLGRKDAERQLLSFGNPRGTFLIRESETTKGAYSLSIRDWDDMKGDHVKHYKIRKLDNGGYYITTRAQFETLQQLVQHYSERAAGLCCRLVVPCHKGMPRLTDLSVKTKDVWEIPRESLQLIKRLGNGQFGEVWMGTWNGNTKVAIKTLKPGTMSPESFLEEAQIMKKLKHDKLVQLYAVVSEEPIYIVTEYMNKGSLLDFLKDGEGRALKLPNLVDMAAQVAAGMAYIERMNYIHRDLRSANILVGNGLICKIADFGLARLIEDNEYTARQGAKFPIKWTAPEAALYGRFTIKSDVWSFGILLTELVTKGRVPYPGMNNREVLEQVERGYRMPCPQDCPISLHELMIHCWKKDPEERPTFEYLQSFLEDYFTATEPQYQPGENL
# [11] = tested on: Fer (mouse); experiment: as above
# [12] = target: Jak2 (UniProt O60674); experiment: as above
# Sequence of Jak2 (O60674 whole entry, looked up): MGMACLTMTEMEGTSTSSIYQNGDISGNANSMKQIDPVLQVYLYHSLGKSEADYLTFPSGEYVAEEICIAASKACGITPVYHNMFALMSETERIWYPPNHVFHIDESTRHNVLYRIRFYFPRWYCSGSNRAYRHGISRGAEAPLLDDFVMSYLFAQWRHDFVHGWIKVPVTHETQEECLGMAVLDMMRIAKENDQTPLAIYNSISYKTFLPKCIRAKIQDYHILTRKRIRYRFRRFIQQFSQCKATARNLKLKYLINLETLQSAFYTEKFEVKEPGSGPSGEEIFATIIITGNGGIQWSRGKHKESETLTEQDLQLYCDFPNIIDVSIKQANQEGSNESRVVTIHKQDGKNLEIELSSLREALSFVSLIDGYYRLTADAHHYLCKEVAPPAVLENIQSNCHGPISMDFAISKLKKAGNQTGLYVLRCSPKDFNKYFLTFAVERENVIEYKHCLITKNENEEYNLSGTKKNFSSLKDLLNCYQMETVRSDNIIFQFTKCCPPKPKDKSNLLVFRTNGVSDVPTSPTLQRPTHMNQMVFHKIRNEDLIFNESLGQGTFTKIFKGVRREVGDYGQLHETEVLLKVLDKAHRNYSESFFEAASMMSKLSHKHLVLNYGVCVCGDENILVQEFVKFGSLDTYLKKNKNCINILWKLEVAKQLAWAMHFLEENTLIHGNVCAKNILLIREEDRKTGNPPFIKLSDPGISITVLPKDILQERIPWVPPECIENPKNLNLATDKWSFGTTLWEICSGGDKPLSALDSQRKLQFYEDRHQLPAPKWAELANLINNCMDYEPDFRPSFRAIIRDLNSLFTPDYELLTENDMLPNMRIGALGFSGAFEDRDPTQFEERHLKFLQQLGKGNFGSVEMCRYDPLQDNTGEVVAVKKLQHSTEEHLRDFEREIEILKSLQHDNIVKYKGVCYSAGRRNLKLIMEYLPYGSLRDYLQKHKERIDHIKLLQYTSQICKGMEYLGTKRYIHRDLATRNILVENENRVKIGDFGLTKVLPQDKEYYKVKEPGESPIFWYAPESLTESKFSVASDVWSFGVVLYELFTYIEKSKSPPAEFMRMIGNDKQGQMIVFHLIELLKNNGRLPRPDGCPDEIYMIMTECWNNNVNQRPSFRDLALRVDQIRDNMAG
# [13] = target: MERTK (UniProt Q12866); experiment: as above
# Sequence of MERTK (Q12866 whole entry, looked up): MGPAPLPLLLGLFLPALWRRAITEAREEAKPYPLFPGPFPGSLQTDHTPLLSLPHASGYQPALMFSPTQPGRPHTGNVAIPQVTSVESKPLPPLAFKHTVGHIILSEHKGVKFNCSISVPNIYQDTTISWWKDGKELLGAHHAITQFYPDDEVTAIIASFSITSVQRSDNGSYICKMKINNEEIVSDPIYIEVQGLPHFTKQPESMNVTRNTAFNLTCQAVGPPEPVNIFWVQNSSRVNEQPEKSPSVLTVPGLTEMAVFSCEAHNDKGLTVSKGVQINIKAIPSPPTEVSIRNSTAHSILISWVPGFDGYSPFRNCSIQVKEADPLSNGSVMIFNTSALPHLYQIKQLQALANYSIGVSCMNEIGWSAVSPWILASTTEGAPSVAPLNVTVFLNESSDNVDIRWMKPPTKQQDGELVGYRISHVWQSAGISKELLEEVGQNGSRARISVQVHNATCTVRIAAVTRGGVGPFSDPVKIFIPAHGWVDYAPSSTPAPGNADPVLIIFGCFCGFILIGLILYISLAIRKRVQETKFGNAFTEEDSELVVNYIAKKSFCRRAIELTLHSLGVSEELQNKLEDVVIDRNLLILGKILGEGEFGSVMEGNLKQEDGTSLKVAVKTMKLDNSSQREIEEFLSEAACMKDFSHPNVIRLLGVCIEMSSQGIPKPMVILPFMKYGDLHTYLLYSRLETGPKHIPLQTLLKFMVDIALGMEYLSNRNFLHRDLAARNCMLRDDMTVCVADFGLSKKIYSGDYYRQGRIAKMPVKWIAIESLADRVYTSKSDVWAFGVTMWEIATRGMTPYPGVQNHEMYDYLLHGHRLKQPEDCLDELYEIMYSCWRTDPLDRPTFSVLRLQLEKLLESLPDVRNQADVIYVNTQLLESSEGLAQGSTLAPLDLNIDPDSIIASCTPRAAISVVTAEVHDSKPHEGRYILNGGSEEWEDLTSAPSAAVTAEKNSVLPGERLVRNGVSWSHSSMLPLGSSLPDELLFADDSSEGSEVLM
# [14] = tested on: AncSZ; experiment: as above
# [15] = target: Hck (UniProt P08631); experiment: as above
# [16] = target: Fes (UniProt P07332); experiment: as above
# 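For SH2 binding enrichment of the phosphorylated peptide, bacterial display in this document: peptide library displayed on the E. coli surface as eCPX fusions, selected cells deep-sequenced, score is each peptide's frequency after selection divided by its frequency in the input.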
# 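For phosphorylation enrichment, bacterial display in this document: 11-residue human phosphosite peptides and single-mutation variants displayed on the E. coli surface, counted by deep sequencing, each peptide's frequency after selection divided by its frequency in the unselected input library; frequency after pTyr selection over input frequency; kinase dosed for 20-30% of maximal phosphorylation in three min.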
Sequence,SH2 binding enrichment [1],SH2 binding enrichment [2],SH2 binding enrichment [3],phosphorylation enrichment [4],phosphorylation enrichment [5],phosphorylation enrichment [6],phosphorylation enrichment [7],phosphorylation enrichment [8],phosphorylation enrichment [9],phosphorylation enrichment [10],phosphorylation enrichment [11],phosphorylation enrichment [12],phosphorylation enrichment [13],phosphorylation enrichment [14],phosphorylation enrichment [15],phosphorylation enrichment [16]
SGSIHYSHVPR [GLB1_Y57_R59H],0.593,1.55,0.745,0.426,0.451,0.518,0.383,0.658,0.451,0.35,0.606,0.6,0.425,0.681,0.451,0.79
SHISGYAALRR [RAPH1_Y1226_T1228A],0.318,0.51,0.56,0.328,0.361,0.554,0.44,0.726,0.476,0.494,0.432,0.561,0.446,0.836,0.431,1.04
SHLSSYTTHPQ [NIPBL_Y195_P192L],0.482,0.575,0.714,0.389,0.435,0.591,0.419,0.534,0.393,0.451,0.392,0.663,0.399,0.569,0.44,0.726
SHMVNYQPYRK [TEX37_Y25_D24N],0.472,0.924,0.686,0.317,0.394,0.353,0.401,0.368,0.332,0.375,0.293,0.385,0.351,0.528,0.396,0.49
SHNELYFEAAE [VANGL1_Y344_E347A_YF],0.544,0.614,0.763,0.509,1.13,1.1,0.522,0.624,0.733,0.591,0.476,0.781,0.543,1.11,0.656,1.04
SHNKYYMLVAH [MFSD8_Y134_R139H],2.35,30,1.69,1.06,6.21,4.22,0.418,0.574,0.651,0.418,1.09,1.32,3.19,0.821,0.533,0.757
SIKDKHVTALY [KCNH2_Y611_Y611H],0.497,0.572,0.899,0.387,0.408,0.405,0.44,0.529,0.405,0.409,0.388,0.43,0.345,0.587,0.397,0.61
SISLKYEGRVF [ABL1_Y167_R166K_YF],0.489,0.987,0.86,0.655,0.482,0.771,0.398,0.661,0.609,0.477,0.565,1.13,0.382,1.05,0.553,1.31
SIYKDYYRYNF [PLA2G2D_Y85],0.908,1.92,0.983,5.65,13.6,11.1,4.42,5.64,5.61,4.34,1.32,8.28,5.06,1.39,3.09,0.918
SLHPGYNFRFA [P2RX7_Y291_Y288H_YF],0.703,0.61,0.89,0.573,0.364,0.524,0.385,0.57,0.417,0.378,0.434,0.765,0.394,0.852,0.432,0.904
SLIDMYSEVPD [OPA1_Y268_L272P],0.545,0.7,0.675,0.48,0.892,0.895,0.747,0.619,0.679,0.595,0.422,1.24,0.604,1.27,0.594,1.03
SLLKDYSPQLQ [OTC_Y345_T343K],0.463,0.604,0.884,0.554,0.495,0.999,0.469,0.59,0.525,0.6,0.489,0.624,0.443,0.703,0.504,0.806
SLLVVYPWTQR [HBB_Y36_R31S],1.14,1.5,1.88,0.462,0.438,0.513,0.36,0.602,0.544,0.516,0.398,0.804,0.374,1.05,0.395,1.01
SLMGCYNLTFM [HS6ST3_Y323_V320M],0.459,0.542,0.823,0.65,0.546,1.02,0.955,1.14,0.655,0.592,1.35,1.61,0.56,1.46,0.724,1.63
SLNEEYTKNKT [MSH2_Y563],0.621,0.663,0.988,0.369,0.324,0.397,0.426,0.537,0.354,0.325,0.379,0.593,0.348,0.716,0.37,0.786
SNFRAYATEPH [TNNI3_Y29_YF],0.497,0.671,0.717,0.399,0.53,0.462,0.486,0.64,0.463,0.473,0.366,0.526,0.378,0.647,0.441,0.664
